Our source for the pIC50 Category (FACS) values is US20240115745A1, “COMPOUNDS COMPRISING A FIBROBLAST ACTIVATION PROTEIN LIGAND AND USE THEREOF” (3B PHARMACEUTICALS GMBH, priority 2021, published 2024).

Bridges are numbered along the chain shown (N, C = ends). [ ]: non-standard residue; d: D form. The star is where a group is joined. mli = maleimide cyclization element: 3,4-maleimide inserted symmetrically, forming a vinyl thioether with each Cys sulfur; Ttds = 1,13-diamino-4,7,10-trioxatridecan-succinamic acid, NCCCOCCOCCOCCCNC(=O)CCC(=O)*; mli(DOTA-Ttd) = 3,4-N-(DOTA-Ttd)-maleimide bridging two Cys S atoms as vinyl thioethers; DOTA = O=C(O)CN1CCN(CC(=O)O)CCN(CC(=O)*)CCN(CC(=O)O)CC1; Nle = CCCC[C@H](N)C(=O)O; Hexanoyl = CCCCCC(=O)* Some results are limits rather than exact numbers.

B1: compound DOTA-Nle-[Cys-Pro-Pro-Thr-Glu-Phe-Cys]-Asp-NH2 (1004) (peptide)
peptide: CPPTEFCD
HELM: PEPTIDE1{[O=C(O)CN1CCN(CC(=O)O)CCN(CC(=O)[*:2])CCN(CC(=O)O)CC1].[Nle].C.P.P.T.E.F.C.D.[am]}$PEPTIDE1,PEPTIDE1,3:R3-9:R3$$$V2.0
SMILES: CCCC[C@H](NC(=O)CN1CCN(CC(=O)O)CCN(CC(=O)O)CCN(CC(=O)O)CC1)C(=O)N[C@H]1CSSC[C@@H](C(=O)N[C@@H](CC(=O)O)C(N)=O)NC(=O)[C@H](Cc2ccccc2)NC(=O)[C@H](CCC(=O)O)NC(=O)[C@H]([C@@H](C)O)NC(=O)[C@@H]2CCCN2C(=O)[C@@H]2CCCN2C1=O

The target of this experiment is fibroblast activation protein (FAP) on FAP-expressing human WI-38 fibroblasts (human), Q12884. Nature of the experiment: competitive FACS on WI-38 cells vs 3 nM Cy5-labeled probe; A = pIC50 >7.0. The note with it: remark: other sources report otherwise.
The molecule {DOTA-Ttds}-[Nle]CPPTEFCD-NH2 (disulfide 2-8) [compound DOTA-Ttds-Nle-[Cys-Pro-Pro-Thr-Glu-Phe-Cys]-Asp-NH2 (1003)] registered a pIC50 Category (FACS) greater than 7 pIC50.

For the molecule B1, the pIC50 Category (FACS) was greater than 7 pIC50.

Turning to Hexanoyl-CPPTEFCD-NH2 (linker 1-7 via mli(DOTA-Ttd)) [compound Hex-[Cys(mli(DOTA-Ttd))-Pro-Pro-Thr-Glu-Phe-Cys]-Asp-NH2 (2020)], the pIC50 Category (FACS) is greater than 7 pIC50.

With {DOTA-Ttds}-[Nle]CPPTEFCD-NH2 (linker 2-8 via mli) [compound DOTA-Ttds-Nle-[Cys(mli)-Pro-Pro-Thr-Glu-Phe-Cys]-Asp-NH2 (2007)], the pIC50 Category (FACS) is greater than 7 pIC50.
